Source: US20170165339A1 (IMMATICS BIOTECHNOLOGIES, published 2017)

B1: DDX5-001 (peptide)
peptide: YLLPAIVHI
B2: LLSPHNPAL (SEQ ID NO: 234) (peptide)
peptide: LLSPHNPAL
B3: KIIDFLSAL (SEQ ID NO: 235) (peptide)
peptide: KIIDFLSAL
B4: STIAILNSV (SEQ ID NO: 236) (peptide)
peptide: STIAILNSV
B5: ALAPHLDDA (SEQ ID NO: 237) (peptide)
peptide: ALAPHLDDA
B6: GLYERPTAA (SEQ ID NO: 238) (peptide)
peptide: GLYERPTAA
B7: KMNESTRSV (SEQ ID NO: 239) (peptide)
peptide: KMNESTRSV
B8: YMGEEKLIASV (SEQ ID NO: 240) (peptide)
peptide: YMGEEKLIASV
B9: KTIQQLETV (SEQ ID NO: 241) (peptide)
peptide: KTIQQLETV
B10: WLYGEDHQI (SEQ ID NO: 242) (peptide)
peptide: WLYGEDHQI
B11: FMADDIFSV (SEQ ID NO: 243) (peptide)
peptide: FMADDIFSV
B12: YLLEKNRVV (SEQ ID NO: 244) (peptide)
peptide: YLLEKNRVV
B13: SLLDLPLSL (SEQ ID NO: 245) (peptide)
peptide: SLLDLPLSL
B14: TVSDVLNSV (SEQ ID NO: 246) (peptide)
peptide: TVSDVLNSV
B15: ALYEGYATV (SEQ ID NO: 247) (peptide)
peptide: ALYEGYATV
B16: YLDRFLAGV (SEQ ID NO: 248) (peptide)
peptide: YLDRFLAGV
B17: GLCERLVSL (SEQ ID NO: 249) (peptide)
peptide: GLCERLVSL
B18: SLAPATPEV (SEQ ID NO: 250) (peptide)
peptide: SLAPATPEV
B19: ALSVLRLAL (SEQ ID NO: 251) (peptide)
peptide: ALSVLRLAL
B20: RLMEICESL (SEQ ID NO: 252) (peptide)
peptide: RLMEICESL
B21: ALAELIDNSL (SEQ ID NO: 253) (peptide)
peptide: ALAELIDNSL
B22: KLQGKLPEL (SEQ ID NO: 254) (peptide)
peptide: KLQGKLPEL
B23: SLLHFTENL (SEQ ID NO: 255) (peptide)
peptide: SLLHFTENL
B24: SLGEEQFSV (SEQ ID NO: 256) (peptide)
peptide: SLGEEQFSV
B25: GLYTDPCGV (SEQ ID NO: 257) (peptide)
peptide: GLYTDPCGV
B26: LLSERFINV (SEQ ID NO: 258) (peptide)
peptide: LLSERFINV
B27: ILLPRIIEA (SEQ ID NO: 259) (peptide)
peptide: ILLPRIIEA
B28: ILLEKILSL (SEQ ID NO: 260) (peptide)
peptide: ILLEKILSL
B29: QLQDRVYAL (SEQ ID NO: 261) (peptide)
peptide: QLQDRVYAL
B30: FMVDKAIYL (SEQ ID NO: 262) (peptide)
peptide: FMVDKAIYL
B31: VLLSEQGDVKL (SEQ ID NO: 263) (peptide)
peptide: VLLSEQGDVKL
B32: KLFPQETLFL (SEQ ID NO: 264) (peptide)
peptide: KLFPQETLFL
B33: NTCPYVHNI (SEQ ID NO: 265) (peptide)
peptide: NTCPYVHNI
B34: YAIGLVMRL (SEQ ID NO: 266) (peptide)
peptide: YAIGLVMRL

target: HLA-A*02:01 (human); test: pMHC used for negative control stimulation

Does B1 bind?
Result: binds

target: HLA-A*02 (human); test: UV peptide-exchange ELISA, yield grade

How did the peptide exchange yield turn out when B2 was run?
The peptide exchange yield was 50 to 75%.

With B3 as the binder, how does the peptide exchange yield read?
Its peptide exchange yield is 50 to 75%.

Which peptide exchange yield does the source give for B4 here?
Its peptide exchange yield is 50 to 75%.

B5 was tested. Which peptide exchange yield did it give?
Its peptide exchange yield is 50 to 75%.

Which peptide exchange yield does the source give for B6 here?
Its peptide exchange yield is 20 to 49%.

For B7, which peptide exchange yield is on record?
The peptide exchange yield was 20 to 49%.

How did the peptide exchange yield turn out when B8 was run?
Its peptide exchange yield is 50 to 75%.

With B9 as the binder, how does the peptide exchange yield read?
Its peptide exchange yield is 20 to 49%.

With B10 as the binder, how does the peptide exchange yield read?
The peptide exchange yield was 20 to 49%.

B11 was tested. Which peptide exchange yield did it give?
The peptide exchange yield was 50 to 75%.

Which peptide exchange yield does the source give for B12 here?
Its peptide exchange yield is 20 to 49%.

How did the peptide exchange yield turn out when B13 was run?
Its peptide exchange yield is at least 75%.

Which peptide exchange yield does the source give for B14 here?
Its peptide exchange yield is 50 to 75%.

Which peptide exchange yield does the source give for B15 here?
The peptide exchange yield was 50 to 75%.

Which peptide exchange yield does the source give for B16 here?
Its peptide exchange yield is at least 75%.

Which peptide exchange yield does the source give for B17 here?
Its peptide exchange yield is at least 75%.

With B18 as the binder, how does the peptide exchange yield read?
The peptide exchange yield was 50 to 75%.

B19 was tested. Which peptide exchange yield did it give?
Its peptide exchange yield is 50 to 75%.

Which peptide exchange yield does the source give for B20 here?
Its peptide exchange yield is 50 to 75%.

How did the peptide exchange yield turn out when B21 was run?
The peptide exchange yield was 50 to 75%.

Which peptide exchange yield does the source give for B22 here?
The peptide exchange yield was 20 to 49%.

For B23, which peptide exchange yield is on record?
The peptide exchange yield was 50 to 75%.

B24 was tested. Which peptide exchange yield did it give?
The peptide exchange yield was 20 to 49%.

With B25 as the binder, how does the peptide exchange yield read?
The peptide exchange yield was at least 75%.

For B26, which peptide exchange yield is on record?
The peptide exchange yield was at least 75%.

Which peptide exchange yield does the source give for B27 here?
Its peptide exchange yield is 50 to 75%.

For B28, which peptide exchange yield is on record?
Its peptide exchange yield is 50 to 75%.

B29 was tested. Which peptide exchange yield did it give?
Its peptide exchange yield is 50 to 75%.

How did the peptide exchange yield turn out when B30 was run?
Its peptide exchange yield is 50 to 75%.

With B31 as the binder, how does the peptide exchange yield read?
The peptide exchange yield was 20 to 49%.

With B32 as the binder, how does the peptide exchange yield read?
The peptide exchange yield was 50 to 75%.

With B33 as the binder, how does the peptide exchange yield read?
The peptide exchange yield was 50 to 75%.

How did the peptide exchange yield turn out when B34 was run?
The peptide exchange yield was 50 to 75%.
